B1: mRNA-splicing (parent)
chain: AGUUGCUGCUGGGAGCUCCAGCACAGUGAAAUGGACAGAAGGGCAGAGCAA

Variants of: B1
Test: exon inclusion enrichment index; higher = more inclusion; WT1 exon 5 minigene, HEK293

Variant	exon inclusion enrichment index
C6A U7A C9A U10A A25U G26C	0.956
C6A U7A C9A U10A A25U G26U	0.734
C6A U7A C9A U10A A29C	0.513
C6A U7A C9A U10A A29C A30C	1.17
C6A U7A C9A U10A A29C A30G	1.51
C6A U7A C9A U10A A29C A30U	0.34
C6A U7A C9A U10A A29G	1.06
C6A U7A C9A U10A A29G A30C	0.273
C6A U7A C9A U10A A29G A30G	0.495
C6A U7A C9A U10A A29G A30U	0.163
C6A U7A C9A U10A A29U	0.131
C6A U7A C9A U10A A29U A30C	0.665
C6A U7A C9A U10A A29U A30G	0.739
C6A U7A C9A U10A A29U A30U	0.198
C6A U7A C9A U10A A30C	0.809
C6A U7A C9A U10A A30C A31C	1.38
C6A U7A C9A U10A A30C A31G	1.45
C6A U7A C9A U10A A30C A31U	0.986
C6A U7A C9A U10A A30G	0.658
C6A U7A C9A U10A A30G A31C	0.0339
C6A U7A C9A U10A A30G A31G	0.168
C6A U7A C9A U10A A30G A31U	0.133
C6A U7A C9A U10A A30U	0.433
C6A U7A C9A U10A A30U A31C	0.579

Variant	exon inclusion enrichment index
C6A U7A C9A U10A A30U A31G	0.653
C6A U7A C9A U10A A30U A31U	0.426
C6A U7A C9A U10A A31C	0.898
C6A U7A C9A U10A A31C U32A	0.428
C6A U7A C9A U10A A31C U32C	1.71
C6A U7A C9A U10A A31C U32G	1.02
C6A U7A C9A U10A A31G	1.04
C6A U7A C9A U10A A31G U32A	2.95
C6A U7A C9A U10A A31G U32C	2.27
C6A U7A C9A U10A A31G U32G	0.383
C6A U7A C9A U10A A31U	0.592
C6A U7A C9A U10A A31U U32A	0.0674
C6A U7A C9A U10A A31U U32C	1.09
C6A U7A C9A U10A A31U U32G	0.311
C6A U7A C9A U10A A35C	0.237
C6A U7A C9A U10A A35C C36A	0.329
C6A U7A C9A U10A A35C C36G	0.657
C6A U7A C9A U10A A35C C36U	0.0347
C6A U7A C9A U10A A35G	0.217
C6A U7A C9A U10A A35G C36A	0.281
C6A U7A C9A U10A A35G C36G	0.0241
C6A U7A C9A U10A A35G C36U	0.00209
C6A U7A C9A U10A A35U	0.119
C6A U7A C9A U10A A35U C36A	0.00157

Variant	exon inclusion enrichment index
C6A U7A C9A U10A A35U C36G	0.054
C6A U7A C9A U10A A35U C36U	0.00621
C6A U7A C9A U10A A37C	1.72
C6A U7A C9A U10A A37C G38A	0.719
C6A U7A C9A U10A A37C G38C	0.896
C6A U7A C9A U10A A37C G38U	0.426
C6A U7A C9A U10A A37G	1.54
C6A U7A C9A U10A A37G G38A	0.801
C6A U7A C9A U10A A37G G38C	0.984
C6A U7A C9A U10A A37G G38U	0.29
C6A U7A C9A U10A A37U	0.746
C6A U7A C9A U10A A37U G38A	0.258
C6A U7A C9A U10A A37U G38C	0.667
C6A U7A C9A U10A A37U G38U	0.112
C6A U7A C9A U10A A39C	0.201
C6A U7A C9A U10A A39C A40C	1.65
C6A U7A C9A U10A A39C A40G	0.849
C6A U7A C9A U10A A39C A40U	0.533
C6A U7A C9A U10A A39G	0.404
C6A U7A C9A U10A A39G A40C	1.22
C6A U7A C9A U10A A39G A40G	0.0665
C6A U7A C9A U10A A39G A40U	0.0506
C6A U7A C9A U10A A39U	0.0237
C6A U7A C9A U10A A39U A40C	1.19

Variant	exon inclusion enrichment index
C6A U7A C9A U10A A39U A40G	0.0729
C6A U7A C9A U10A A39U A40U	0.184
C6A U7A C9A U10A A40C	1.8
C6A U7A C9A U10A A40C G41A	0.218
C6A U7A C9A U10A A40C G41C	1.98
C6A U7A C9A U10A A40C G41U	0.431
C6A U7A C9A U10A A40G	0.737
C6A U7A C9A U10A A40G G41A	0.23
C6A U7A C9A U10A A40G G41C	2.13
C6A U7A C9A U10A A40G G41U	0.576
C6A U7A C9A U10A A40U	0.579
C6A U7A C9A U10A A40U G41A	0.0256
C6A U7A C9A U10A A40U G41C	1.33
C6A U7A C9A U10A A40U G41U	0.373
C6A U7A C9A U10A A45C	0.979
C6A U7A C9A U10A A45C G46A	0.367
C6A U7A C9A U10A A45C G46C	0.542
C6A U7A C9A U10A A45C G46U	0.191
C6A U7A C9A U10A A45G	1.6
C6A U7A C9A U10A A45G G46A	2.3
C6A U7A C9A U10A A45G G46C	1.17
C6A U7A C9A U10A A45G G46U	0.543
C6A U7A C9A U10A A45U	1.14
C6A U7A C9A U10A A45U G46A	0.485

Variant	exon inclusion enrichment index
C6A U7A C9A U10A A45U G46C	0.614
C6A U7A C9A U10A A45U G46U	0.185
C6A U7A C9A U10A A47C	1.15
C6A U7A C9A U10A A47C G48A	0.547
C6A U7A C9A U10A A47C G48C	0.797
C6A U7A C9A U10A A47C G48U	0.811
C6A U7A C9A U10A A47G	0.13
C6A U7A C9A U10A A47G G48A	0.364
C6A U7A C9A U10A A47G G48C	0.251
C6A U7A C9A U10A A47G G48U	0.0862
C6A U7A C9A U10A A47U	0.546
C6A U7A C9A U10A A47U G48A	0.579
C6A U7A C9A U10A A47U G48C	0.497
C6A U7A C9A U10A A47U G48U	0.748
C6A U7A C9A U10A C16A	0.669
C6A U7A C9A U10A C16A U17A	0.501
C6A U7A C9A U10A C16A U17C	0.47
C6A U7A C9A U10A C16A U17G	0.312
C6A U7A C9A U10A C16G	0.188
C6A U7A C9A U10A C16G U17A	0.533
C6A U7A C9A U10A C16G U17C	0.22
C6A U7A C9A U10A C16G U17G	0.02
C6A U7A C9A U10A C16U	0.472
C6A U7A C9A U10A C16U U17A	0.291

Variant	exon inclusion enrichment index
C6A U7A C9A U10A C16U U17C	0.225
C6A U7A C9A U10A C16U U17G	0.212
C6A U7A C9A U10A C18A	0.411
C6A U7A C9A U10A C18A C19A	0.0959
C6A U7A C9A U10A C18A C19G	0.0285
C6A U7A C9A U10A C18A C19U	0.0166
C6A U7A C9A U10A C18G	0.561
C6A U7A C9A U10A C18G C19A	0.924
C6A U7A C9A U10A C18G C19G	0.718
C6A U7A C9A U10A C18G C19U	0.076
C6A U7A C9A U10A C18U	0.387
C6A U7A C9A U10A C18U C19A	0.046
C6A U7A C9A U10A C18U C19G	0.119
C6A U7A C9A U10A C18U C19U	0.00807
C6A U7A C9A U10A C19A	0.348
C6A U7A C9A U10A C19A A20C	0.41
C6A U7A C9A U10A C19A A20G	0.0532
C6A U7A C9A U10A C19A A20U	0.195
C6A U7A C9A U10A C19G	0.576
C6A U7A C9A U10A C19G A20C	1.03
C6A U7A C9A U10A C19G A20G	0.289
C6A U7A C9A U10A C19G A20U	0.62
C6A U7A C9A U10A C19U	0.0565
C6A U7A C9A U10A C19U A20C	0.579

Variant	exon inclusion enrichment index
C6A U7A C9A U10A C19U A20G	0.121
C6A U7A C9A U10A C19U A20U	0.19
C6A U7A C9A U10A C22A	0.593
C6A U7A C9A U10A C22A A23C	1.39
C6A U7A C9A U10A C22A A23G	0.734
C6A U7A C9A U10A C22A A23U	0.354
C6A U7A C9A U10A C22G	0.964
C6A U7A C9A U10A C22G A23C	0.321
C6A U7A C9A U10A C22G A23G	0.212
C6A U7A C9A U10A C22G A23U	0.0793
C6A U7A C9A U10A C22U	0.414
C6A U7A C9A U10A C22U A23C	0.267
C6A U7A C9A U10A C22U A23G	0.694
C6A U7A C9A U10A C22U A23U	0.226
C6A U7A C9A U10A C24A	0.545
C6A U7A C9A U10A C24A A25C	2.22
C6A U7A C9A U10A C24A A25G	0.796
C6A U7A C9A U10A C24A A25U	0.754
C6A U7A C9A U10A C24G	0.763
C6A U7A C9A U10A C24G A25C	2.12
C6A U7A C9A U10A C24G A25G	0.308
C6A U7A C9A U10A C24G A25U	0.778
C6A U7A C9A U10A C24U	0.161
